{
  "source": "paper PMC11212984",
  "target": "ERGU-1::GFP (C. elegans ERGU-1, Y87G2A.13, with GFP fused to its C-terminus) (C. elegans)",
  "experiment": "SDS-PAGE western blot",
  "note": "Where “and” joins values, the source holds several entries; their conditions need not be identical. Identical values can stand only once.",
  "data": [
    {"substance": "ERGU-1::GFP (C. elegans ERGU-1, Y87G2A.13, with GFP fused to its C-terminus) (natural protein)", "values": [
      {"measurement": "stoichiometry N", "result": "2 and 4"}
    ]}
  ]
}
